Measured values reported in PMC5123574, “Redox cofactors insertion in prokaryotic molybdoenzymes occurs via a conserved folding mechanism” (Scientific Reports, 2016).

Molecular target: the molecule itself
Test: SAXS; SEC-coupled SAXS (SWING beamline, SOLEIL); ~25 mg/mL in Tris-HCl 40 mM pH 7.6, 8% glycerol, online Agilent BioSEC-3 300 Å column; Mw from SAXSMoW, volume from DAMMIF; NarGH heterodimers into a trimer

Row | Protein | stoichiometry N | binding result
1 | holoNarGH, Moco-loaded soluble catalytic NarGH complex of nitrate reductase A (complex, E. coli, NarG, nitrate-reducing catalytic subunit of respiratory nitrate reductase A, E. coli; carries Mo-bisPGD and the [4Fe-4S] cluster FS0; Printed residue numbers (Arg108, Glu794) follow the crystal structure 1q16; NarH, electron-transfer subunit of respiratory nitrate reductase A, E. coli; carries four Fe/S clusters (FS1-4); The unit written here is the NarGH heterodimer (~200 kDa), which is trimeric …) chain 1: MSKFLDRFRYFKQKGETFADGHGQLLNTNRDWEDGYRQRWQHDKIVRSTHGVNCTGSCSWKIYVKNGLVTWETQQTDYPRTRPDLPNHEPRGCPRGASYSWYLYSANRLKYPMMRKRLMKMWREAKALHSDPVEAWASIIEDADKAKSFKQARGRGGFVRSSWQEVNELIAASNVYTIKNYGPDRVAGFSPIPAMSMVSYASGARYLSLIGGTCLSFYDWYCDLPPASPQTWGEQTDVPESADWYNSSYIIAWGSNVPQTRTPDAHFFTEVRYKGTKTVAVTPDYAEIAKLCDLWLAPKQGTDAAMALAMGHVMLREFHLDNPSQYFTDYVRRYTDMPMLVMLEERDGYYAAGRMLRAADLVDALGQENNPEWKTVAFNTNGEMVAPNGSIGFRWGEKGKWNLEQRDGKTGEETELQLSLLGSQDEIAEVGFPYFGGDGTEHFNKVELENVLLHKLPVKRLQLADGSTALVTTVYDLTLANYGLERGLNDVNCATSYDDVKAYTPAWAEQITGVSRSQIIRIAREFADNADKTHGRSMIIVGAGLNHWYHLDMNYRGLINMLIFCGCVGQSGGGWAHYVGQEKLRPQTGWQPLAFALDWQRPARHMNSTSYFYNHSSQWRYETVTAEELLSPMADKSRYTGHLIDFNVRAERMGWLPSAPQLGTNPLTIAGEAEKAGMNPVDYTVKSLKEGSIRFAAEQPENGKNHPRNLFIWRSNLLGSSGKGHEFMLKYLLGTEHGIQGKDLGQQGGVKPEEVDWQDNGLEGKLDLVVTLDFRLSSTCLYSDIILPTATWYEKDDMNTSDMHPFIHPLSAAVDPAWEAKSDWEIYKAIAKKFSEVCVGHLGKETDIVTLPIQHDSAAELAQPLDVKDWKKGECDLIPGKTAPHIMVVERDYPATYERFTSIGPLMEKIGNGGKGIAWNTQSEMDLLRKLNYTKAEGPAKGQPMLNTAIDAAEMILTLAPETNGQVAVKAWAALSEFTGRDHTHLALNKEDEKIRFRDIQAQPRKIISSPTWSGLEDEHVSYNAGYTNVHELIPWRTLSGRQQLYQDHQWMRDFGESLLVYRPPIDTRSVKEVIGQKSNGNQEKALNFLTPHQKWGIHSTYSDNLLMLTLGRGGPVVWLSEADAKDLGIADNDWIEVFNSNGALTARAVVSQRVPAGMTMMYHAQERIVNLPGSEITQQRGGIHNSVTRITPKPTHMIGGYAHLAYGFNYYGTVGSNRDEFVVVRKMKNIDWLDGEGNDQVQESVK chain 2: MKIRSQVGMVLNLDKCIGCHTCSVTCKNVWTSREGVEYAWFNNVETKPGQGFPTDWENQEKYKGGWIRKINGKLQPRMGNRAMLLGKIFANPHLPGIDDYYEPFDFDYQNLHTAPEGSKSQPIARPRSLITGERMAKIEKGPNWEDDLGGEFDKLAKDKNFDNIQKAMYSQFENTFMMYLPRLCEHCLNPACVATCPSGAIYKREEDGIVLIDQDKCRGWRMCITGCPYKKIYFNWKSGKSEKCIFCYPRIEAGQPTVCSETCVGRIRYLGVLLYDADAIERAASTENEKDLYQRQLDVFLDPNDPKVIEQAIKDGIPLSVIEAAQQSPVYKMAMEWKLALPLHPEYRTLPMVWYVPPLSPIQSAADAGELGSNGILPDVESLRIPVQYLANLLTAGDTKPVLRALKRMLAMRHYKRAETVDGKVDTRALEEVGLTEAQAQEMYRYLAIANYEDRFVVPSSHRELAREAFPEKNGCGFTFGDGCHGSDTKFNLFNSRRIDAIDVTSKTEPHP | 3 | –
2 | apoNarGH, cofactor-less NarGH complex produced in absence of NarJ (complex, E. coli, NarG, nitrate-reducing catalytic subunit of respiratory nitrate reductase A, E. coli; here devoid of FS0 and Moco; Printed residue numbers follow the crystal structure 1q16; NarH, electron-transfer subunit of respiratory nitrate reductase A, E. coli; The unit is the NarGH heterodimer; His6 put on NarH from the plasmid name; also called Moco-less His-tagged NarGH complex) chain 1: MSKFLDRFRYFKQKGETFADGHGQLLNTNRDWEDGYRQRWQHDKIVRSTHGVNCTGSCSWKIYVKNGLVTWETQQTDYPRTRPDLPNHEPRGCPRGASYSWYLYSANRLKYPMMRKRLMKMWREAKALHSDPVEAWASIIEDADKAKSFKQARGRGGFVRSSWQEVNELIAASNVYTIKNYGPDRVAGFSPIPAMSMVSYASGARYLSLIGGTCLSFYDWYCDLPPASPQTWGEQTDVPESADWYNSSYIIAWGSNVPQTRTPDAHFFTEVRYKGTKTVAVTPDYAEIAKLCDLWLAPKQGTDAAMALAMGHVMLREFHLDNPSQYFTDYVRRYTDMPMLVMLEERDGYYAAGRMLRAADLVDALGQENNPEWKTVAFNTNGEMVAPNGSIGFRWGEKGKWNLEQRDGKTGEETELQLSLLGSQDEIAEVGFPYFGGDGTEHFNKVELENVLLHKLPVKRLQLADGSTALVTTVYDLTLANYGLERGLNDVNCATSYDDVKAYTPAWAEQITGVSRSQIIRIAREFADNADKTHGRSMIIVGAGLNHWYHLDMNYRGLINMLIFCGCVGQSGGGWAHYVGQEKLRPQTGWQPLAFALDWQRPARHMNSTSYFYNHSSQWRYETVTAEELLSPMADKSRYTGHLIDFNVRAERMGWLPSAPQLGTNPLTIAGEAEKAGMNPVDYTVKSLKEGSIRFAAEQPENGKNHPRNLFIWRSNLLGSSGKGHEFMLKYLLGTEHGIQGKDLGQQGGVKPEEVDWQDNGLEGKLDLVVTLDFRLSSTCLYSDIILPTATWYEKDDMNTSDMHPFIHPLSAAVDPAWEAKSDWEIYKAIAKKFSEVCVGHLGKETDIVTLPIQHDSAAELAQPLDVKDWKKGECDLIPGKTAPHIMVVERDYPATYERFTSIGPLMEKIGNGGKGIAWNTQSEMDLLRKLNYTKAEGPAKGQPMLNTAIDAAEMILTLAPETNGQVAVKAWAALSEFTGRDHTHLALNKEDEKIRFRDIQAQPRKIISSPTWSGLEDEHVSYNAGYTNVHELIPWRTLSGRQQLYQDHQWMRDFGESLLVYRPPIDTRSVKEVIGQKSNGNQEKALNFLTPHQKWGIHSTYSDNLLMLTLGRGGPVVWLSEADAKDLGIADNDWIEVFNSNGALTARAVVSQRVPAGMTMMYHAQERIVNLPGSEITQQRGGIHNSVTRITPKPTHMIGGYAHLAYGFNYYGTVGSNRDEFVVVRKMKNIDWLDGEGNDQVQESVK chain 2: MKIRSQVGMVLNLDKCIGCHTCSVTCKNVWTSREGVEYAWFNNVETKPGQGFPTDWENQEKYKGGWIRKINGKLQPRMGNRAMLLGKIFANPHLPGIDDYYEPFDFDYQNLHTAPEGSKSQPIARPRSLITGERMAKIEKGPNWEDDLGGEFDKLAKDKNFDNIQKAMYSQFENTFMMYLPRLCEHCLNPACVATCPSGAIYKREEDGIVLIDQDKCRGWRMCITGCPYKKIYFNWKSGKSEKCIFCYPRIEAGQPTVCSETCVGRIRYLGVLLYDADAIERAASTENEKDLYQRQLDVFLDPNDPKVIEQAIKDGIPLSVIEAAQQSPVYKMAMEWKLALPLHPEYRTLPMVWYVPPLSPIQSAADAGELGSNGILPDVESLRIPVQYLANLLTAGDTKPVLRALKRMLAMRHYKRAETVDGKVDTRALEEVGLTEAQAQEMYRYLAIANYEDRFVVPSSHRELAREAFPEKNGCGFTFGDGCHGSDTKFNLFNSRRIDAIDVTSKTEPHP | 3 | –
3 | NarG_(R108A)H_(His6) complex (complex, E. coli, NarG, catalytic subunit of respiratory nitrate reductase A, E. coli, with R108A; NarH, electron-transfer subunit of respiratory nitrate reductase A, E. coli; The unit is the NarGH heterodimer; His6 put on NarH from the plasmid name; also called R108A NarGH; NarGH variant; source: E. coli with pNarG_(R108A)H_(His6)J, purified) chain 1: MSKFLDRFRYFKQKGETFADGHGQLLNTNRDWEDGYRQRWQHDKIVRSTHGVNCTGSCSWKIYVKNGLVTWETQQTDYPRTRPDLPNHEPRGCPRGASYSWYLYSANALKYPMMRKRLMKMWREAKALHSDPVEAWASIIEDADKAKSFKQARGRGGFVRSSWQEVNELIAASNVYTIKNYGPDRVAGFSPIPAMSMVSYASGARYLSLIGGTCLSFYDWYCDLPPASPQTWGEQTDVPESADWYNSSYIIAWGSNVPQTRTPDAHFFTEVRYKGTKTVAVTPDYAEIAKLCDLWLAPKQGTDAAMALAMGHVMLREFHLDNPSQYFTDYVRRYTDMPMLVMLEERDGYYAAGRMLRAADLVDALGQENNPEWKTVAFNTNGEMVAPNGSIGFRWGEKGKWNLEQRDGKTGEETELQLSLLGSQDEIAEVGFPYFGGDGTEHFNKVELENVLLHKLPVKRLQLADGSTALVTTVYDLTLANYGLERGLNDVNCATSYDDVKAYTPAWAEQITGVSRSQIIRIAREFADNADKTHGRSMIIVGAGLNHWYHLDMNYRGLINMLIFCGCVGQSGGGWAHYVGQEKLRPQTGWQPLAFALDWQRPARHMNSTSYFYNHSSQWRYETVTAEELLSPMADKSRYTGHLIDFNVRAERMGWLPSAPQLGTNPLTIAGEAEKAGMNPVDYTVKSLKEGSIRFAAEQPENGKNHPRNLFIWRSNLLGSSGKGHEFMLKYLLGTEHGIQGKDLGQQGGVKPEEVDWQDNGLEGKLDLVVTLDFRLSSTCLYSDIILPTATWYEKDDMNTSDMHPFIHPLSAAVDPAWEAKSDWEIYKAIAKKFSEVCVGHLGKETDIVTLPIQHDSAAELAQPLDVKDWKKGECDLIPGKTAPHIMVVERDYPATYERFTSIGPLMEKIGNGGKGIAWNTQSEMDLLRKLNYTKAEGPAKGQPMLNTAIDAAEMILTLAPETNGQVAVKAWAALSEFTGRDHTHLALNKEDEKIRFRDIQAQPRKIISSPTWSGLEDEHVSYNAGYTNVHELIPWRTLSGRQQLYQDHQWMRDFGESLLVYRPPIDTRSVKEVIGQKSNGNQEKALNFLTPHQKWGIHSTYSDNLLMLTLGRGGPVVWLSEADAKDLGIADNDWIEVFNSNGALTARAVVSQRVPAGMTMMYHAQERIVNLPGSEITQQRGGIHNSVTRITPKPTHMIGGYAHLAYGFNYYGTVGSNRDEFVVVRKMKNIDWLDGEGNDQVQESVK chain 2: MKIRSQVGMVLNLDKCIGCHTCSVTCKNVWTSREGVEYAWFNNVETKPGQGFPTDWENQEKYKGGWIRKINGKLQPRMGNRAMLLGKIFANPHLPGIDDYYEPFDFDYQNLHTAPEGSKSQPIARPRSLITGERMAKIEKGPNWEDDLGGEFDKLAKDKNFDNIQKAMYSQFENTFMMYLPRLCEHCLNPACVATCPSGAIYKREEDGIVLIDQDKCRGWRMCITGCPYKKIYFNWKSGKSEKCIFCYPRIEAGQPTVCSETCVGRIRYLGVLLYDADAIERAASTENEKDLYQRQLDVFLDPNDPKVIEQAIKDGIPLSVIEAAQQSPVYKMAMEWKLALPLHPEYRTLPMVWYVPPLSPIQSAADAGELGSNGILPDVESLRIPVQYLANLLTAGDTKPVLRALKRMLAMRHYKRAETVDGKVDTRALEEVGLTEAQAQEMYRYLAIANYEDRFVVPSSHRELAREAFPEKNGCGFTFGDGCHGSDTKFNLFNSRRIDAIDVTSKTEPHP | – | binds
